# Assay results taken from paper PMC3459938.
# What was measured:
# Assay in all cases: ELISA
# [1] = target: WW2-GFP (construct 7) (human) (UniProt P46934)
# [2] = target: WW3-GFP (human) (UniProt P46934)
# [3] = target: WW4-GFP (construct 9) (human) (UniProt P46934)
# [4] = target: WW_(2-3-4)-GFP (human) (UniProt P46934)
# [5] = target: construct 2 (WW2-WW3-GFP, natural linker) (human) (UniProt P46934)
# [6] = target: construct 4 (two WW domains joined by QGLQNEE, GFP fusion)
# [7] = target: construct 5 (two WW domains joined by QGLQNEE, GFP fusion)
substance,measurement,setting,value
Adenovirus serotype 3 Penton-Dodecahedron (from UniProt Q2Y0H9 1-544; P04501 1-319) (complex),percent Pt-Dd binding relative to WW (2-3-4)-GFP,[1],13%
same,Kd,[2],0.0824 nM
same,percent Pt-Dd binding relative to WW (2-3-4)-GFP,[2],80%
same,percent Pt-Dd binding relative to WW (2-3-4)-GFP,[3],40%
same,Kd,[4],0.0525 nM
same,decrease in affinity relative to WW (2-3-4)-GFP,[5],20%
same,decrease in affinity relative to WW (2-3-4)-GFP,[6],20%
same,decrease in affinity relative to WW (2-3-4)-GFP,[7],20%
